Measurements reported in publication PMC10770758, “Protocatechuate hydroxylase is a novel group A flavoprotein monooxygenase with a unique substrate recognition mechanism” (The Journal of Biological Chemistry, 2023).

Assays:
O=C(O)c1ccc(O)c(O)c1 = test: purified protein; type: biochemical, Xylophilus ampelinus; conditions: apparent, 0.25 mM NADPH, 20 mM Tris-HCl pH 7.9, 25 °C
O=C(O)c1ccc(O)cc1 = test: purified protein; type: biochemical, Xylophilus ampelinus; conditions: apparent, 0.25 mM NADPH, 20 mM Tris-HCl pH 7.9, 25 °C

Row | Substance | Km (O=C(O)c1ccc(O)c(O)c1) | Km (O=C(O)c1ccc(O)cc1)
1 | XaPobA (Xylophilus ampelinus; M210A) | 9.6 ± 0.3 × 10^−1 mM | 
2 | XaPobA (Xylophilus ampelinus; W201A) | 6.5 ± 2.7 × 10^−1 mM | 
3 | XaPobA (Xylophilus ampelinus; C347T) | 3.2 ± 1.0 × 10^−1 mM | 9.1 ± 3.4 × 10^−1 mM
4 | XaPobA (Xylophilus ampelinus; W201Y) | 5.0 ± 1.1 × 10^−1 mM | 7.2 ± 2.2 × 10^−2 mM
